# Data as given in the RNAGym collection of RNA variant scans (doi:10.1021/acssynbio.7b00057).
# B1: Pistol ribozyme (parent)
# chain: GGGUCGUUGUUCCAUAAUCGCGUGGAUAUGGCACGCAAGUUUCUACCGGGCACCGUAAAUGUCCGACUGGAGCCGUUCGGGCGGCUAUAAACAGACCUCAGGCCCGAAGCGUGGCGGCACCUGCCGCCGGUGGUAAAAAAGAUCGGAAGAGCACACGUCU
# Variants of: B1
# Test: aptazyme ON/OFF ratio, guanine; higher = stronger switching; co-transcriptional cleavage with and without guanine
row,Variant,aptazyme ON/OFF ratio
1,G9C U10A C12U,1.6
2,G9C U10A C12A,1.81
3,G9C U10A C12G,1.22
4,G9A U11A C13G,1.1
5,G9A U11A C13U,1.34
6,G9A U11A C13A,1.23
7,G9C U10A U11G C12A C13A,1.06
8,G9C U10A U11G C12A C13U,1.17
9,G9C U10A U11G C12A C13G,1.17
10,G9A U11C C13A,1.03
11,G9A U11C C13U,1.11
12,G9A U11C C13G,1.11
13,G9A U10C U11A C13G,1.14
14,G9A U10C U11A C13A,1.41
15,G9A U10C U11A C13U,1.3
16,G9C U10C U11A C12U,1.13
17,G9C U10C U11A C12A,1.07
18,G9C U10C U11A C12G,1.14
19,G9C U10A U11A C12G C13A,1.31
20,G9C U10A U11A C12G C13U,1.38
21,G9C U10A U11A C12G C13G,1.27
22,G9A U10C C12A,1.38
23,G9A U10C C12G,1.32
24,G9A U10C C12U,1.5

row,Variant,aptazyme ON/OFF ratio
1,G9A U11A C12G C13G,1.2
2,G9A U11A C12G C13U,1.41
3,G9A U11A C12G C13A,1.39
4,G9A U10C U11C C13G,1.07
5,G9A U10C U11C C13U,1.01
6,G9A U10C U11C C13A,1.02
7,G9A U10G U11A C12G,1.33
8,G9A U10G U11A C12U,1.04
9,G9A U10G U11A C12A,1.17
10,G9C U10C C12G C13A,1.06
11,G9C U10C C12G C13G,1.09
12,G9C U10C C12G C13U,1.09
13,G9A U10G U11G C12G,1.25
14,G9A U10G U11G C12U,1.48
15,G9A U10G U11G C12A,1.11
16,G9A U10G U11A C12A C13G,1.09
17,G9A U10G U11A C12A C13A,1.08
18,G9A U10G U11A C12A C13U,1.1
19,G9C C12G,1.35
20,G9C C12U,1.07
21,G9C C12A,1.38
22,G9A U10A U11G,2.38
23,G9A U10G U11G C12A C13G,1.13
24,G9A U10G U11G C12A C13A,1.19

row,Variant,aptazyme ON/OFF ratio
1,G9A U10G U11G C12A C13U,1.25
2,G9C,1.06
3,G9C U10C U11C C12G C13G,1.05
4,G9C U10C U11C C12G C13U,1.04
5,G9C U10C U11C C12G C13A,1.08
6,G9A U10G C12A C13A,1.29
7,G9A U10G C12A C13G,1.14
8,G9A U10G C12A C13U,1.69
9,G9A U10G U11G C12U C13G,1.19
10,G9A U10G U11G C12U C13U,1.55
11,G9A U10G U11G C12U C13A,1.08
12,G9A U10G U11C C12A,1.53
13,G9A U10G U11C C12U,1.08
14,G9A U10G U11C C12G,1.33
15,G9C U10C U11G C12A,1.03
16,G9C U10C U11G C12U,1.07
17,G9C U10C U11G C12G,1.09
18,G9C U10C U11C C13A,1.02
19,G9C U10C U11C C13U,1.02
20,G9C U10C U11C C13G,1.03
21,G9A U10G U11A C13A,1.01
22,G9A U10G U11A C13G,1.04
23,G9A U10G U11A C13U,1.05
24,G9C U10A U11A C12A C13A,1.4

row,Variant,aptazyme ON/OFF ratio
1,G9C U10A U11A C12A C13U,1.27
2,G9C U10A U11A C12A C13G,1.21
3,G9C U10C U11A C13A,1.05
4,G9C U10C U11A C13G,1.07
5,G9C U10C U11A C13U,1.07
6,G9A U10G U11C C12G C13G,1.27
7,G9A U10G U11C C12G C13A,1.11
8,G9A U10G U11C C12G C13U,1.24
9,G9C U10A U11C C12G C13U,1.24
10,G9C U10A U11C C12G C13G,1.44
11,G9C U10A U11C C12G C13A,1.32
12,G9C U10C U11C C12U C13G,1.01
13,G9C U10C U11C C12U C13U,1.03
14,G9C U10C U11C C12U C13A,1.02
15,G9A U10A U11G C12U C13G,1.28
16,G9A U10A U11G C12U C13A,1.34
17,G9A U10A U11G C12U C13U,1.22
18,G9C U10C U11A C12A C13G,1.07
19,G9C U10C U11A C12A C13U,1.11
20,G9C U10C U11A C12A C13A,1.06
21,G9A U10C U11G C12G C13U,1.1
22,G9A U10C U11G C12G C13A,1.17
23,G9A U10C U11G C12G C13G,1.12
24,G9A U10G C12U C13G,1.35

row,Variant,aptazyme ON/OFF ratio
1,G9A U10G C12U C13A,1.37
2,G9A U10G C12U C13U,1.05
3,G9A U10G U11G,1.11
4,G9A U10G U11A,1.06
5,G9A U10G U11C,1.1
6,G9A U11A C12A,1.68
7,G9A U11A C12U,1.83
8,G9A U11A C12G,1.51
9,G9A U10G C12U,1.82
10,G9A U10G C12G,1.24
11,G9A U10G C12A,1.53
12,G9A U11G,2.2
13,G9A U11C,1.12
14,G9A U11A,2.53
15,G9A U10C U11G C12U C13A,1.37
16,G9A U10C U11G C12U C13U,1.4
17,G9A U10C U11G C12U C13G,1.43
18,G9A U10C C13A,1.08
19,G9A U10C C13U,1.23
20,G9A U10C C13G,1.03
21,G9A U10C U11C C12A C13A,1.12
22,G9A U10C U11C C12A C13G,1.18
23,G9A U10C U11C C12A C13U,1.3
24,G9C C12U C13U,1.31

row,Variant,aptazyme ON/OFF ratio
1,G9C C12U C13A,1.14
2,G9C C12U C13G,1.04
3,G9A U10C U11C C12U,1.06
4,G9A U10C U11C C12G,1.18
5,G9A U10C U11C C12A,1.1
6,G9A U10C U11A C12U C13U,1.22
7,G9A U10C U11A C12U C13G,1.29
8,G9A U10C U11A C12U C13A,1.35
9,G9C U10C U11G C12G C13G,1.13
10,G9C U10C U11G C12G C13A,1.04
11,G9C U10C U11G C12G C13U,1.11
12,G9C U10A U11A C13A,1.22
13,G9C U10A U11A C13U,1.32
14,G9C U10A U11A C13G,1.05
15,G9C U10C C12A,1.09
16,G9C U10C C12U,1.12
17,G9C U10C C12G,1.06
18,G9C U10A U11A C12U,1.66
19,G9C U10A U11A C12A,1.52
20,G9C U10A U11A C12G,1.5
21,G9C U10C C12A C13G,1.06
22,G9C U10C C12A C13U,1.05
23,G9C U10C C12A C13A,1.03
24,G9A U10C C12G C13G,1.23

row,Variant,aptazyme ON/OFF ratio
1,G9A U10C C12G C13U,1.31
2,G9A U10C C12G C13A,1.23
3,G9A U10A U11G C12U,1.42
4,G9A U10A U11G C12A,1.02
5,G9A U10A U11G C12G,1.16
6,G9C C12A C13U,1.35
7,G9C C12A C13A,1.29
8,G9C C12A C13G,1.1
9,G9A U11A C12A C13U,1.36
10,G9A U11A C12A C13A,1.33
11,G9A U11A C12A C13G,1.29
12,G9A U10C U11G C12A C13G,1.3
13,G9A U10C U11G C12A C13U,1.21
14,G9A U10C U11G C12A C13A,1.22
15,G9A U10G,3.45
16,G9A U10C,3.12
17,G9C U10A U11C C13U,1.06
18,G9C U10A U11C C13A,1.09
19,G9C U10A U11C C13G,1.04
20,G9C U10A U11G C12U,1.37
21,G9C U10A U11G C12A,1.06
22,G9C U10A U11G C12G,1.23
23,G9C U10C C13G,1.06
